Fewer inactive variants are shown than the library holds.
B1: TPR 5TU (parent)
chain: GGAUCUUCUCGAUCUAACAAAAAAGACAAAUCUGCCACAAAGCUUGAGAGCAUCUUCGGAUGCAGAGGCGGCAGCCUUCGGUGGCGCGAUAGCGCCAACGUUCUCAACUAUGACACGCAAAACGCGUGCUCCGUUGAAUGGAGUUUAUCAUG

Variants of: B1
Experiment: polymerase ribozyme fitness, log enrichment relative to wild type (log ratio); higher = more active; in vitro selection for triplet polymerase activity
How it was run: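 After PCR construction and transcription, each subunit's mutant library from a heterodimeric triplet polymerase ribozyme was annealed with a biotinylated primer, the partner subunit and triplets. Incubation was frozen, at −7 °C, and extended constructs were gel-excised, bound to streptavidin beads and amplified by RT-PCR, in one selection round done in triplicate. Fitness is the logarithm of a genotype's enrichment divided by that of the wild type, from inverse-variance-weighted replicate averages of Illumina-sequenced inputs and outputs. The base of the logarithm is 2, and genotypes needed ≥10 input reads and ≥1 read per output.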

| Variant | polymerase ribozyme fitness (log ratio) |
| --- | --- |
| GGAUCUUCUAGUUCUAACAAAAAAGACCCAUCUGCCACAAAGCUUGAGAGCAUCUUCGGAUGCAGAGGCGGCAGCCUUCGGUGGCGCGAUAGCGCCAACGUUCUCAGCUAUGACACGCAAAACGCGUGCUCCGUUGAAUGGAGUUUAUCAUG [C10A A12U A28C A29C A107G] | ≤ -4.2 |
| GGAUCUUCCCGAUCUAACAAAAAAGACAAAUCGGCCACUAAGCUUGAGAGCAUCAUUGGAUGCAGAGGCGGCAGCCUUCGGUGGCGCGAUCGCGACAACGUUCUCAACUAUGACACGCAAAACGCGUGCUCCGUUGAAUUGAGUUUAUCAUG [U9C U33G A39U U55A C57U A91C C95A G140U] | ≤ -4.2 |
| GGAUCUUCGCGAUCAAACAAAAAAGACAAUUCGGCCACAAACCUUGAGAGCAUCUUCGGAUGCAGAGGCGGCAGCCUUCGGUGGCGCGAUAGCGCCAACGAUCUGAACUUUGACACGUGAAACGCGUGCUCCGUUGAAAGGAGUUUCUCGUG [U9G U15A A30U U33G G42C U101A C105G A110U C118U A119G U139A A147C A150G] | ≤ -4.2 |
| GGAUCUUCUAGAUCUAACGAAAAAGACAAAUCUGCCACAAAGCUUGAGAGCAUCUUAGAAUGCAGAGGCGGCAGCCUUCGGAGGUGCGAUAGCGCCAACGUUCUCAACUAUGACACGCAAAACGCGUGCUCCGUUGAAUGCAGUUUAUCAUG [C10A A19G C57A G59A U82A C85U G141C] | ≤ -4.2 |
| GGAUCUUCGCGAUCUACCAAAUAAGACAGAUCUGCCACAAAGCUUGAGAACAUCUUCGGAUGCAGAGACGGCAGCCUUCGGUGGCGCGAUAGCGCCAACGUUCUCAACUAUGACACGCAAAACGCGUGCUCCGUUGAAUGGAGUUUAUCAUG [U9G A17C A22U A29G G50A G68A] | ≤ -4.2 |
| GGAUCUUCCCGAUCUAACAAAAAAGACAAAUCUGCCACAAAGCUUGAGAGCAUCUUCGGAUGCAGAGGCGGCAGCCUUCGGAGGCGCGAUAUCGCCAACGUUCUCAACUAUGACAUGCAAAACGCGUGCUCCGGUGAAUGGAGUUUAUCAUG [U9C U82A G92U C116U U134G] | ≤ -4.2 |
| GGAUCUUCGCGAUCUAACAAAAAAGACAAAUCUGCCACAAAGCUUGAGAGCAUCUUCGUAUGCAGAGCCGGCAGCCUUCGGUGUCGCGAUAGCGCCAACGUUCUAAACUAUGACACGCAAAACACGUGCUCCCUUGAAUGGCGUUUAUCAUG [U9G G59U G68C G84U C105A G124A G133C A142C] | ≤ -4.2 |
| GGAUCUUCGCGAUCUAACAAAAAAGACAAAUCUGCCACAAAGCUUGAGAGCAUCUUCGGAUGCAAAGGCGGCAGCCUUCGUUGGCGCGAUAGCGUCAACGUUCUCAACUAUGACACGCAAAACGCGUGCUCCGUUGAAUGGAGUUUAUCAUG [U9G G65A G81U C95U] | ≤ -4.2 |
| GGAUCUUCGCGAUCUAACAAAAAAGACAAAUAUGCCACAGAGCUUGAGAGCGUCUUCGGAUGCAGAGGCGGCAGCCUUCGGUGGCGCGAUAGCGCCAACGUUCUCAACUAUGACACGCAAAACGCGUGCUCCGUUGAAUGGAGUUUAUCAUG [U9G C32A A40G A52G] | ≤ -4.2 |
| GGAUCUUCGCGAUCUAACAAAAAAGACAAAUCUGCCAUAAAGCCUAAGAGCAUCUACGGAUGCAGAGGCGGCAGCCUUGGGUGGCGCGAUAGCGCAAACGUUCUCAACUAUGACACGCAAAACGCGUGCUCCGUUGAAUGGGGUUUAUCAUG [U9G C38U U44C G46A U56A C79G C96A A142G] | ≤ -4.2 |
| GGAUCUUCGCGAUCUAACAAAAAAGACAAAUCUGCCACAAAGCUUGAGAGCAGCUUCGGAUGCAGAGGCGGCAGCCUUCGGUGGCGUGAUAGCGCCAACGUUCUCAACUAUGUCAAGCAAAACGCGUGCUCCGUUGAAUUGAGUUUAUCAUG [U9G U53G C87U A113U C116A G140U] | ≤ -4.2 |
| GGAUCUUCUAGAUCUACCAAAAAAGACAAAUCUGUCACAAAGCUUGAGAGCAUCUUCGAAUGCAGAGGCGGCAGCCUUCGGUGGCGCGAUAGCGCCAACGUUCUCAACUAUGACACGCAAAUCGCGUGCUCCGUUGAAUGGAGUUAAUCAUG [C10A A17C C35U G59A A122U U146A] | ≤ -4.2 |
| GGAUCUUCGCGAUCUAACAAAAAAGACAAAUCUGCCACAAACCUUGAGAGCAUCUUCCGAUGCAGAGGCGGCAGCCUUCGGUGGCGCGAUAGCGUCAACGUUCUCAACUAUGACACGCAAAACGCGUGCUCCGUUGAAUGGAGUUUAUCAUG [U9G G42C G58C C95U] | ≤ -4.2 |
| GGAUCUUCGCGAUCUAACAAAAAAGACAAAUCUGUCACAAAGCUUGAUAGCAUCUGCGGCUGCAGAGGCGGCAACCUUCGGUGGCGCGAUAGCGCGAACGUUCGCAUCUAUGACACGCAAAACGCGUGCUCCGUUGAAUGGAGUUUAUCAUG [U9G C35U G48U U56G A60C G74A C96G U104G A107U] | ≤ -4.2 |
| GGAUCUUCGCGAUCUAACAAAAAAGACAAAUCUGCCACGAAGCUUGAGAGCAACUUCGGAUGCAGAGGCGGCAGCCUUCGGUCGCGAGAUAGCGCCAACGUUCUCAAGUAUGACACGCAAAACGCGUGCUCCGUUGAAUGGAGUUUAUCAAG [U9G A39G U53A G83C C87A C108G U151A] | ≤ -4.2 |
| GGAUCUUCGCGAUCUAACAAAAUAGGCGAAUCUGCCACAAAGCUUGAGAGCAUCUUCGGAAGCAGAGGCGGCAGCCUUCAGUGGCGCGAUAGCGCCAACGUUCUCAACUAUGACACGCAUAACGCGUGCUCCGUUGAAUGUAGUUUAUCAUG [U9G A23U A26G A28G U61A G80A A120U G141U] | ≤ -4.2 |
| GGAUCUUCGCGAUCUAACAAAAAAGACAAAUCUGCCACAAAGCUUGAGAGCAUCUUCGGAUGCAGAGGCGGCAGCCUUCGGUGGCUCGAUAGCGCCUACGUUCUCAAGUAUGACACGCAAAACGCGUGCUCCGUUGAAUGGAGUUUAUCAUG [U9G G86U A97U C108G] | ≤ -4.2 |
| GGAUCUUCGCGAUCUAACAAAAAAGACAAAUCUGCCACAAAGCUUGAGAGCAUCUUCGGAUGCAGAGGCGGCAGCCUUCGGUGGCGCGAUAGCGCCAACGUUCUCAACUAUGACACGCAAAACGCGUGCUCCGUUGAAUGUAGUUUAUCAUG [U9G G141U] | -2.58 |
| GGAUCUUCGCGAUCUAACAAAAAAGACAAAUCUGCCACAAAGCUUGAGAGCAUCUUCGGAUGCAGAGGCGGCAGCCUUCGGUGGUGCGAUAGCGCCAACGUUCUCAACUAUGACACGCAAAACGCGUGCUCCGUUGAAUGGAGUUUAUCAUG [U9G C85U] | -3.41 |
